Biological target: DBD-FKBP12 (three tandem copies) (UniProt P62942)
Assay: cell-based or functional assay

Chain of DBD-FKBP12 (three tandem copies) (P62942 other isoform, or with tags, fused parts or gaps limits assumed): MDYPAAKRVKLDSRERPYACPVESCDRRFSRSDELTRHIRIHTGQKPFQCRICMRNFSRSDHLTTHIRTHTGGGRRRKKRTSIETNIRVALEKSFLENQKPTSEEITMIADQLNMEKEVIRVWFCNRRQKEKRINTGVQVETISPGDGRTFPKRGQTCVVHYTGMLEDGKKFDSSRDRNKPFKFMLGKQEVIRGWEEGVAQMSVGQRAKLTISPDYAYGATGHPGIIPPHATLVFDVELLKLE

FRB-AD (from UniProt P42345 2021-2113) showed a fold increase of luciferase expression, split transcription factor, rapalog of 30 fold.

Source: patent US20220380801A1, “TRIPARTITE SYSTEMS FOR PROTEIN DIMERIZATION AND METHODS OF USE” (priority 2019, published 2022)
